Laboratory results taken from patent publication US20200140562A1 (Innovent, published 2020).
Substitutions are numbered along the chain they refer to. Each block holds one binder with its values, some of them ahead of it.

Key:
[1] = target: T1, human OX40_Fc (R&D Systems) (human, UniProt P43489 29-216); test: BLI, IgG1 on tip, hOX40-Fc 50 nM, avid
T1 construct: Bought

[2] = target: T2, human OX40 on cells (CHO-hOX40, 293HEK-hOX40, Jurkat-hOX40, activated primary CD4+ T cells) (human, UniProt P43489 29-277); test: flow cytometry, MFI on CHO-hOX40 over wild-type CHO
T2 construct: whole, on cells; The cell type is told in each assay; also called CHO-OX40
T2 sequence (looked up): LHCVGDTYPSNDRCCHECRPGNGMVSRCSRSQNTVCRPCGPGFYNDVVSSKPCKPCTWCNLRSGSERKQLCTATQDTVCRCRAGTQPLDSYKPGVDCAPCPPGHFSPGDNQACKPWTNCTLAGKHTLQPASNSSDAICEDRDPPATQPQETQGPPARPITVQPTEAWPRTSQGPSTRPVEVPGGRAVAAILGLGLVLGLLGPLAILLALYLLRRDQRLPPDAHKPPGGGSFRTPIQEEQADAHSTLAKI

[3] = target: T2, human OX40 on cells (CHO-hOX40, …); test: flow cytometry, CHO-hOX40, 100 nM
[4] = target: T3, mouse OX40Fc (Acro Biosystems) (mouse, UniProt P47741 20-211, limits assumed); test: BLI, IgG1 on tip, mouse OX40-Fc in solution
T3 construct: Bought; not shown: Fc
T3 sequence (looked up): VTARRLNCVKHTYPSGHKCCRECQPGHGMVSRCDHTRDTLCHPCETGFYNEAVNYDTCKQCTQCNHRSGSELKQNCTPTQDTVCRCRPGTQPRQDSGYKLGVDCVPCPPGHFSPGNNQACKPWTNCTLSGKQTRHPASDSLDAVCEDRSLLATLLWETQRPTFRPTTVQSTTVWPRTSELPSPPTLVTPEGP

[5] = target: T4, cyno OX40_Fc (Acro Biosystems) (cyno); test: BLI, IgG1 on tip, cyno OX40-Fc 100 nM, avid
T4 construct: Bought

[6] = target: T2, human OX40 on cells (CHO-hOX40, …); test: cell-based or functional assay
[7] = target: T2, human OX40 on cells (CHO-hOX40, …); test: flow cytometry, CHO-hOX40, 50 nM
[8] = target: T2, human OX40 on cells (CHO-hOX40, …); test: flow cytometry, CHO-hOX40, IgG2 made in 293HEK
[9] = target: T2, human OX40 on cells (CHO-hOX40, …); test: flow cytometry, CHO-hOX40, 0.78125 nM
[10] = target: T2, human OX40 on cells (CHO-hOX40, …); test: flow cytometry, CHO-hOX40, 6.25 nM
[11] = target: T2, human OX40 on cells (CHO-hOX40, …); test: flow cytometry, CHO-hOX40, 0.09765625 nM
[12] = target: T2, human OX40 on cells (CHO-hOX40, …); test: flow cytometry, CHO-hOX40, 3.125 nM
[13] = target: T2, human OX40 on cells (CHO-hOX40, …); test: flow cytometry, CHO-hOX40, 0.024414063 nM
[14] = target: T2, human OX40 on cells (CHO-hOX40, …); test: flow cytometry, CHO-hOX40, 200 nM
[15] = target: T2, human OX40 on cells (CHO-hOX40, …); test: flow cytometry, CHO-hOX40, 0.048828125 nM
[16] = target: T2, human OX40 on cells (CHO-hOX40, …); test: flow cytometry, CHO-hOX40, 12.5 nM
[17] = target: T2, human OX40 on cells (CHO-hOX40, …); test: flow cytometry, CHO-hOX40, 1.5625 nM
[18] = target: T2, human OX40 on cells (CHO-hOX40, …); test: flow cytometry, CHO-hOX40, 0.1953125 nM
[19] = target: T2, human OX40 on cells (CHO-hOX40, …); test: flow cytometry, CHO-hOX40, 0.390625 nM
[20] = target: T2, human OX40 on cells (CHO-hOX40, …); test: flow cytometry, CHO-hOX40, 100 nM; remark: listed apart in the source
[21] = target: T2, human OX40 on cells (CHO-hOX40, …); test: flow cytometry, CHO-hOX40, 25 nM

Kd [1]: 268 pM | Fold difference [2]: 2340 fold | CHO-OX40 binding intensity (MFI) [3]: 253000 MFI | binding result [4]: no binding (tested: 100 nM) | Kd [5]: 1370 pM
B2: ADI-25651, IgG1 format (antibody, V domains shown)
VH: QVQLVESGGGVVQPGRSLRLSCAASGFTFSSRNMHWVRQAPGKGLEWVAVIAYDGSLKYYADSVKGRFTISRDNSKNTLYLQMNSLRAEDTAVYYCARGRPWYSETGTSAFDIWGQGTMVTVSS
VL: DIQMTQSPSSLSASVGDRVTITCQASQDISNYLNWYQQKPGKAPKLLIYDASNLETGVPSRFSGSGSGTDFTFTISSLQPEDIATYYCQQSDHYPTFGGGTKVEIKR
notes: Made in yeast

Kd [1]: 223 pM | Fold difference [2]: 2320 fold | CHO-OX40 binding intensity (MFI) [3]: 252000 MFI | binding result [4]: no binding (tested: 100 nM) | Kd [5]: 1150 pM
B3: ADI-25653, IgG1 format (antibody, V domains shown)
VH: B2 VH with S30V, R32Y, A52M, L57A
VL: B2 VL
notes: Made in yeast

Kd [1]: 283 pM | EC50, NFkB-luciferase reporter in Jurkat-hOX40 mixed with Raji cells [6]: 28.2 pM | Fold difference [2]: 2260 fold | CHO-OX40 binding intensity (MFI) [3]: 252000 MFI | binding result [4]: no binding (tested: 100 nM) | Kd [5]: 1530 pM
B4: ADI-25654, IgG1 format (antibody, V domains shown)
VH: B2 VH with S30R, R32Y, N33D, V50Y, L57N
VL: B2 VL
notes: Made in yeast or CHO cells; also called ADI-25654-g1

Second part, the binder before the results:

B1: ADI-25650, IgG1 format (antibody, V domains shown)
VH: B2 VH with S31V, R32Y, L57A
VL: B2 VL
notes: Made in yeast
Kd [1]: 230 pM | Fold difference [2]: 2040 fold | CHO-OX40 binding intensity (MFI) [3]: 252000 MFI | binding result [4]: no binding (tested: 100 nM) | Kd [5]: 1600 pM

B5: ADI-23515, IgG2 format (antibody)
heavy: QVQLQESGPGLVKPSQTLSLTCTVSGGSIRSGAYYWSWIRQHPGKGLEWIGYIYYDGQTYYNPSLKSRVTISVDTSKNQFSLKLSSVTAADTAVYYCARDVGYPHYYGMDVWGQGTTVTVSSASTKGPSVFPLAPCSRSTSESTAALGCLVKDYFPEPVTVSWNSGALTSGVHTFPAVLQSSGLYSLSSVVTVPSSNFGTQTYTCNVDHKPSNTKVDKTVERKCCVECPPCPAPPVAGPSVFLFPPKPKDTLMISRTPEVTCVVVDVSHEDPEVQFNWYVDGVEVHNAKTKPREEQFNSTFRVVSVLTVVHQDWLNGKEYKCKVSNKGLPAPIEKTISKTKGQPREPQVYTLPPSREEMTKNQVSLTCLVKGFYPSDIAVEWESNGQPENNYKTTPPMLDSDGSFFLYSKLTVDKSRWQQGNVFSCSVMHEALHNHYTQKSLSLSPG
light: EIVLTQSPGTLSLSPGERATLSCRASQSVSSSYLAWYQQKPGQAPRLLIYGASSRATGIPDRFSGSGSGTDFTLTISRLEPEDFAVYYCQQSERSPFTFGGGTKVEIKRTVAAPSVFIFPPSDEQLKSGTASVVCLLNNFYPREAKVQWKVDNALQSGNSQESVTEQDSKDSTYSLSSTLTLSKADYEKHKVYACEVTHQGLSSPVTKSFNRGEC
EC50, NFkB-luciferase reporter in Jurkat-hOX40 [6]: 390 pM

B6: ADI-20118, IgG2 format (antibody)
heavy: QVQLVQSGAEVKKPGASVKVSCKASGYTFTSYAISWVRQAPGQGLEWMGWISAYNGNTNYAQKLQGRVTMTTDTSTSTAYMELRSLRSDDTAVYYCARSGGGSGPNWFDPWGQGTLVTVSSASTKGPSVFPLAPCSRSTSESTAALGCLVKDYFPEPVTVSWNSGALTSGVHTFPAVLQSSGLYSLSSVVTVPSSNFGTQTYTCNVDHKPSNTKVDKTVERKCCVECPPCPAPPVAGPSVFLFPPKPKDTLMISRTPEVTCVVVDVSHEDPEVQFNWYVDGVEVHNAKTKPREEQFNSTFRVVSVLTVVHQDWLNGKEYKCKVSNKGLPAPIEKTISKTKGQPREPQVYTLPPSREEMTKNQVSLTCLVKGFYPSDIAVEWESNGQPENNYKTTPPMLDSDGSFFLYSKLTVDKSRWQQGNVFSCSVMHEALHNHYTQKSLSLSPG
light: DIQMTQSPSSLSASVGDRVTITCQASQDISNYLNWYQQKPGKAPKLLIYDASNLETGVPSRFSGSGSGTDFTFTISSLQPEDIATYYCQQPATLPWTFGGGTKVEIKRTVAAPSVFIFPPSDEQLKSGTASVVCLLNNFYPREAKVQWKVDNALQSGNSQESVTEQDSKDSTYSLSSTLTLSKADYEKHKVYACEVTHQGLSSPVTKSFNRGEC
notes: Made in 293HEK cells
MFI [7]: 1.38e+06 MFI | EC50 [8]: 5840 pM | MFI [9]: 207000 MFI | MFI [10]: 889000 MFI | MFI [11]: 36800 MFI | MFI [12]: 600000 MFI | MFI [13]: 16500 MFI | MFI [14]: 1.72e+06 MFI | MFI [15]: 18400 MFI | MFI [16]: 1.13e+06 MFI | MFI [17]: 352000 MFI | MFI [18]: 60400 MFI | MFI [19]: 120000 MFI | MFI [20]: 1.53e+06 MFI | MFI [21]: 1.5e+06 MFI

B7: ADI-20051, IgG2 format (antibody)
heavy: QVQLQQWGAGLLKPSETLSLTCAVYGGSFSGYYWSWIRQPPGKGLEWIGEIDHSGSTNYNPSLKSRVTISVDTSKNQFSLKLSSVTAADTAVYYCARDGGGGYASPFDYWGQGTLVTVSSASTKGPSVFPLAPCSRSTSESTAALGCLVKDYFPEPVTVSWNSGALTSGVHTFPAVLQSSGLYSLSSVVTVPSSNFGTQTYTCNVDHKPSNTKVDKTVERKCCVECPPCPAPPVAGPSVFLFPPKPKDTLMISRTPEVTCVVVDVSHEDPEVQFNWYVDGVEVHNAKTKPREEQFNSTFRVVSVLTVVHQDWLNGKEYKCKVSNKGLPAPIEKTISKTKGQPREPQVYTLPPSREEMTKNQVSLTCLVKGFYPSDIAVEWESNGQPENNYKTTPPMLDSDGSFFLYSKLTVDKSRWQQGNVFSCSVMHEALHNHYTQKSLSLSPG
light: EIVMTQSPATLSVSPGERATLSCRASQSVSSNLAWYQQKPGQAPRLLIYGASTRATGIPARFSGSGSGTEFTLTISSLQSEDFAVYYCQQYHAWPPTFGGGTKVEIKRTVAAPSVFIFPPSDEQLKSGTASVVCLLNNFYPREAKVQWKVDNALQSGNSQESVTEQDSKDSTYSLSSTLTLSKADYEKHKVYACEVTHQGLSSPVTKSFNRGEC
notes: Made in 293HEK cells
MFI [7]: 2.1e+06 MFI | EC50 [8]: 5490 pM | MFI [9]: 315000 MFI | MFI [10]: 1.33e+06 MFI | MFI [11]: 40700 MFI | MFI [12]: 913000 MFI | MFI [13]: 20900 MFI | MFI [14]: 2.51e+06 MFI | MFI [15]: 19400 MFI | MFI [16]: 1.62e+06 MFI | MFI [17]: 611000 MFI | MFI [18]: 80500 MFI | MFI [19]: 156000 MFI | MFI [20]: 2.35e+06 MFI | MFI [21]: 2.33e+06 MFI
